# From patent US20240285725A1 (APELLIS PHARMACEUTICALS, published 2024)
# B1: (CA28-AEEAc)8-PEG40k (peptide)
# peptide: ICVWQDWGAHRCTK
# modifications: N-terminal acetyl; 1-methyl-tryptophan at position 4; disulfide Cys2-Cys12; AEEAc between Thr13 and Lys; C-terminal amide; Lys side chain coupled to an arm of an eight-arm 40 kD PEG (NOF HGEO-400GS)
# B2: CA28-AEEAc-Lys(mPEG40K-carbonyl) (peptide)
# peptide: ICVWQDWGAHRCTK
# modifications: not fully specified; N-terminal acetyl; 1-methyl-tryptophan at position 4; disulfide Cys2-Cys12; AEEAc between Thr13 and Lys; C-terminal amide; linear 40 kD mPEG (NOF ME-400TS) on the Lys side chain
# B3: CA28-AEEAc-Lys-(PEG40k) (peptide)
# peptide: ICVWQDWGAHRCTK
# modifications: not fully specified; N-terminal acetyl; 1-methyl-tryptophan at position 4; disulfide Cys2-Cys12; AEEAc between Thr13 and Lys; C-terminal amide; linear monofunctional 40 kD PEG (NOF ME-400GS) on the Lys side chain
# B4: CA28-AEEAc-Lys(mPEG40K-hexanoyl) (peptide)
# peptide: ICVWQDWGAHRCTK
# modifications: N-terminal acetyl; 1-methyl-tryptophan at position 4; disulfide Cys2-Cys12; AEEAc between Thr13 and Lys; C-terminal amide; linear 40 kD mPEG (NOF ME-400HS) on the Lys side chain
# B5: CA28-AEEAc-Lys(mPEG40K-succinyl) (peptide)
# peptide: ICVWQDWGAHRCTK
# modifications: N-terminal acetyl; 1-methyl-tryptophan at position 4; disulfide Cys2-Cys12; AEEAc between Thr13 and Lys; C-terminal amide; linear 40 kD mPEG (NOF ME-400CS) on the Lys side chain
# Columns and labels:
# Experiment in all cases: cell-based or functional assay
# [1] = molecular target: T1, complement component C3 (human, UniProt P01024 23-1663)
# [2] = molecular target: T1, complement component C3; remark: listed apart in the source
# [3] = molecular target: T1, complement component C3; remark: listed apart in the source
Binder,"IC50, classical complement inhibition assay (C3b deposition ELISA, human plasma), as a function of CA28 moiety concentration [1] [nM]","IC50 on a molar basis (corrected for 7.5 CA28 moieties per molecule), classical complement inhibition assay [2] [nM]","IC50 (read off the curve), classical-pathway complement activation (C3b deposition ELISA, human plasma) [3] [nM]"
B1,1930,~260,–
B2,–,–,~700
B3,–,–,~700
B4,–,–,~700
B5,–,–,~700
